Test results taken from patent publication US20180258140A1, “NEW DODECAPEPTIDES AND MICROCAPSULES FUNCTIONALISED WITH THEM TARGETED TO FIBROBLASTS” (Infinitec Activos, S.L., priority 2015, published 2018).
*: point of attachment. Palmitoyl = CCCCCCCCCCCCCCCC(=O)*

Test system: human keratinocytes
Assay: Cytotoxicity assay (MTT) in keratinocytes
Type: cell-based
Conditions: positive control 0.1% SDS, 48h incubation
Method: (§1) Human dermal fibroblasts and human keratinocytes were used. The isolated cells were cultured in DMEM culture medium supplemented with 10% FCS and were incubated at 37° C. for maintenance treatment. Untreated cells were used as negative control. The positive control was 0.1% SDS. The microcapsules as obtained in Example 2 were tested in the DMEM culture medium at 0.03%. These weight percentages refer to the weight of the microcapsule in relation to the total weight. Cells were seeded at 20000 cells per well in a 96-well plate. 24 hours after seeding, cells were incubated under the conditions described above. After 48h of incubation at 37° C., the culture medium was removed and the MTT reagent was added. Cells were incubated 2 hours at 37° C. DMSO was then added and the absorbance of the formed formazan salt was measured at A 570 nm. Lower absorbance values correspond to cells with lower metabolic activity, which correlates with an increased damage and, therefore, with an increased cytotoxic effect. Thus, the amount of living cells is proportional to the amount of formazan produced.

Row | Compound | Keratinocytes % cell viability [%]
1 | CCCCCCCCCCCCOS(=O)(=O)[O-].[Na+] [SDS, Sodium dodecyl sulfate] | 12

Molecular target: FGFR2 Kinase (Homo sapiens, UniProt P21802)
Sequence (P21802 22-821): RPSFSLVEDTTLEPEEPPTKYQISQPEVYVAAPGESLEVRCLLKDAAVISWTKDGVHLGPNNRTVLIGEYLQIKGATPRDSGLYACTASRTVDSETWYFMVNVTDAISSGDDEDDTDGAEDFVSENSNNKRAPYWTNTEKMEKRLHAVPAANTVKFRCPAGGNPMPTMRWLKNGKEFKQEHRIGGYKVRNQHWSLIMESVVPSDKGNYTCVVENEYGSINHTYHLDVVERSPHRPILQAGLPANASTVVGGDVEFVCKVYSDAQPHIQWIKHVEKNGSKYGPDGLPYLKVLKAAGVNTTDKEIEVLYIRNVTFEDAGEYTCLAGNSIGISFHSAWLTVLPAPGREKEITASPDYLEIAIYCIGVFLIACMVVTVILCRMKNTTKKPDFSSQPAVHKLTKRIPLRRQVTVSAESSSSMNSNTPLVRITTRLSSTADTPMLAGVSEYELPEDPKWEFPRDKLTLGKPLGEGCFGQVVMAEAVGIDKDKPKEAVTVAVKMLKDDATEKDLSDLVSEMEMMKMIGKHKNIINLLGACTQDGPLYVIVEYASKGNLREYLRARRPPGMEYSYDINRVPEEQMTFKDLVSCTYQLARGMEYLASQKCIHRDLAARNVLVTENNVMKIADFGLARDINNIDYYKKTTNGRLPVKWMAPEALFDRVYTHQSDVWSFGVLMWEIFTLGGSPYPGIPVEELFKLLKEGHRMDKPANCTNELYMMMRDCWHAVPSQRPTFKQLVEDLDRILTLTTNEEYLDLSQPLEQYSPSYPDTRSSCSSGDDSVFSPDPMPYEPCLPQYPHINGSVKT
Assay: FGFR2 kinase inhibition
Type: biochemical
Conditions: percent inhibition of control enzyme activity; test concentration not given
Method: [The source words this procedure for another target and reports this target under the same test.] Evaluation of the effects of the dodecapeptides of the invention on the activity of the human FGFR1 kinase were quantified by measuring the phosphorylation of the substrate Ulight-CAGAGAIETDKEYYTVKD (JAK1) using a human recombinant enzyme expressed in insect cells and the LANCE® detection method using the protocol described below:
The peptide to be tested, the reference compound or water (control) are mixed with the enzyme (0.252 ng) in a buffer containing 40 mM Hepes/Tris (pH 7.4), 0.8 mM EGTA/Tris, 8 mM MgCl2, 1.6 mM DTT and 0.008% Tween 20 (For control basal measurements, the enzyme is omitted from the reaction mixture). Thereafter, the reaction is initiated by adding 100 nM of the substrate Ulight-CAGAGAIETDKEYYTVKD (SEQ ID NO: 13) (JAK-1 peptide) and 100 μM ATP, and the mixture is incubated for 60 min at room temperature. Following incubation, the reaction is stopped by adding 13 mM EDTA. After 5 min, the anti-phospho-PT66 antibody labeled with europium chelate (EU-W1024-labeled Anti-Phosphotyrosine Antibody PT66, from Perkin Elmer) is added. After 60 more min, the fluorescence transfer is measured at λex=337 nm, λem=620 nm and λem=665 nm using a microplate reader (Envision, Perkin Elmer).
The enzyme activity is determined by dividing the signal measured at 665 nm by that measured at 620 nm (ratio). The results are expressed as a percent inhibition of the control enzyme activity.
The standard inhibitory reference compound is staurosporine, which is tested in each experiment at several concentrations to obtain an inhibition curve from which its IC50 value is calculated.
Results showing an inhibition (or stimulation for assays run in basal conditions) higher than 20% are considered to represent significant effects of the peptides of the invention.

Row | Compound | FGFR2 Kinase % Inhibition [%]
2 | Palm-Lys-Phe-Asn-Ala-Pro-Leu-Gly-Asn-Tyr-Lys-Lys-Pro-NH2 (Palmitoyl-KFNAPLGNYKKP-NH2; SMILES CCCCCCCCCCCCCCCC(=O)N[C@@H](CCCCN)C(=O)N[C@@H](Cc1ccccc1)C(=O)N[C@@H](CC(N)=O)C(=O)N[C@@H](C)C(=O)N1CCC[C@H]1C(=O)N[C@@H](CC(C)C)C(=O)NCC(=O)N[C@@H](CC(N)=O)C(=O)N[C@@H](Cc1ccc(O)cc1)C(=O)N[C@@H](CCCCN)C(=O)N[C@@H](CCCCN)C(=O)N1CCC[C@H]1C(N)=O) [Peptide 4] | 87.5
3 | Palm-Lys-Phe-Asn-Leu-Ala-Leu-Gly-Asn-Tyr-Lys-Lys-Pro-NH2 (Palmitoyl-KFNLALGNYKKP-NH2; SMILES CCCCCCCCCCCCCCCC(=O)N[C@@H](CCCCN)C(=O)N[C@@H](Cc1ccccc1)C(=O)N[C@@H](CC(N)=O)C(=O)N[C@@H](CC(C)C)C(=O)N[C@@H](C)C(=O)N[C@@H](CC(C)C)C(=O)NCC(=O)N[C@@H](CC(N)=O)C(=O)N[C@@H](Cc1ccc(O)cc1)C(=O)N[C@@H](CCCCN)C(=O)N[C@@H](CCCCN)C(=O)N1CCC[C@H]1C(N)=O) [Peptide 5] | 91.1
4 | Palm-Lys-Phe-Asn-Leu-Pro-Ala-Gly-Asn-Tyr-Lys-Lys-Pro-NH2 (Palmitoyl-KFNLPAGNYKKP-NH2; SMILES CCCCCCCCCCCCCCCC(=O)N[C@@H](CCCCN)C(=O)N[C@@H](Cc1ccccc1)C(=O)N[C@@H](CC(N)=O)C(=O)N[C@@H](CC(C)C)C(=O)N1CCC[C@H]1C(=O)N[C@@H](C)C(=O)NCC(=O)N[C@@H](CC(N)=O)C(=O)N[C@@H](Cc1ccc(O)cc1)C(=O)N[C@@H](CCCCN)C(=O)N[C@@H](CCCCN)C(=O)N1CCC[C@H]1C(N)=O) [Peptide 6] | 98.8
5 | Palm-Lys-Phe-Asn-Leu-Pro-Leu-Ala-Asn-Tyr-Lys-Lys-Pro-NH2 (Palmitoyl-KFNLPLANYKKP-NH2; SMILES CCCCCCCCCCCCCCCC(=O)N[C@@H](CCCCN)C(=O)N[C@@H](Cc1ccccc1)C(=O)N[C@@H](CC(N)=O)C(=O)N[C@@H](CC(C)C)C(=O)N1CCC[C@H]1C(=O)N[C@@H](CC(C)C)C(=O)N[C@@H](C)C(=O)N[C@@H](CC(N)=O)C(=O)N[C@@H](Cc1ccc(O)cc1)C(=O)N[C@@H](CCCCN)C(=O)N[C@@H](CCCCN)C(=O)N1CCC[C@H]1C(N)=O) [Peptide 7] | 98.4
6 | Palm-Lys-Phe-Asn-Leu-Pro-Leu-Gly-Ala-Tyr-Lys-Lys-Pro-NH2 (Palmitoyl-KFNLPLGAYKKP-NH2; SMILES CCCCCCCCCCCCCCCC(=O)N[C@@H](CCCCN)C(=O)N[C@@H](Cc1ccccc1)C(=O)N[C@@H](CC(N)=O)C(=O)N[C@@H](CC(C)C)C(=O)N1CCC[C@H]1C(=O)N[C@@H](CC(C)C)C(=O)NCC(=O)N[C@@H](C)C(=O)N[C@@H](Cc1ccc(O)cc1)C(=O)N[C@@H](CCCCN)C(=O)N[C@@H](CCCCN)C(=O)N1CCC[C@H]1C(N)=O) [Peptide 8] | 98.8
7 | Palm-Lys-Phe-Asn-Leu-Pro-Leu-Gly-Asn-Ala-Lys-Lys-Pro-NH2 (Palmitoyl-KFNLPLGNAKKP-NH2; SMILES CCCCCCCCCCCCCCCC(=O)N[C@@H](CCCCN)C(=O)N[C@@H](Cc1ccccc1)C(=O)N[C@@H](CC(N)=O)C(=O)N[C@@H](CC(C)C)C(=O)N1CCC[C@H]1C(=O)N[C@@H](CC(C)C)C(=O)NCC(=O)N[C@@H](CC(N)=O)C(=O)N[C@@H](C)C(=O)N[C@@H](CCCCN)C(=O)N[C@@H](CCCCN)C(=O)N1CCC[C@H]1C(N)=O) [Peptide 9] | 99.4
8 | Palm-Lys-Phe-Asn-Leu-Pro-Leu-Gly-Asn-Tyr-Ala-Lys-Pro-NH2 (Palmitoyl-KFNLPLGNYAKP-NH2; SMILES CCCCCCCCCCCCCCCC(=O)N[C@@H](CCCCN)C(=O)N[C@@H](Cc1ccccc1)C(=O)N[C@@H](CC(N)=O)C(=O)N[C@@H](CC(C)C)C(=O)N1CCC[C@H]1C(=O)N[C@@H](CC(C)C)C(=O)NCC(=O)N[C@@H](CC(N)=O)C(=O)N[C@@H](Cc1ccc(O)cc1)C(=O)N[C@@H](C)C(=O)N[C@@H](CCCCN)C(=O)N1CCC[C@H]1C(N)=O) [Peptide 10] | 93.4
9 | Palm-Lys-Phe-Asn-Leu-Pro-Leu-Gly-Asn-Tyr-Lys-Ala-Pro-NH2 (Palmitoyl-KFNLPLGNYKAP-NH2; SMILES CCCCCCCCCCCCCCCC(=O)N[C@@H](CCCCN)C(=O)N[C@@H](Cc1ccccc1)C(=O)N[C@@H](CC(N)=O)C(=O)N[C@@H](CC(C)C)C(=O)N1CCC[C@H]1C(=O)N[C@@H](CC(C)C)C(=O)NCC(=O)N[C@@H](CC(N)=O)C(=O)N[C@@H](Cc1ccc(O)cc1)C(=O)N[C@@H](CCCCN)C(=O)N[C@@H](C)C(=O)N1CCC[C@H]1C(N)=O) [Peptide 11] | 89.9
10 | Palm-Lys-Phe-Asn-Leu-Pro-Leu-Gly-Asn-Tyr-Lys-Lys-Ala-NH2 (Palmitoyl-KFNLPLGNYKKA-NH2; SMILES CCCCCCCCCCCCCCCC(=O)N[C@@H](CCCCN)C(=O)N[C@@H](Cc1ccccc1)C(=O)N[C@@H](CC(N)=O)C(=O)N[C@@H](CC(C)C)C(=O)N1CCC[C@H]1C(=O)N[C@@H](CC(C)C)C(=O)NCC(=O)N[C@@H](CC(N)=O)C(=O)N[C@@H](Cc1ccc(O)cc1)C(=O)N[C@@H](CCCCN)C(=O)N[C@@H](CCCCN)C(=O)N[C@@H](C)C(N)=O) [Peptide 12] | 90.1
11 | Palm-Lys-Phe-Asn-Leu-Pro-Leu-Gly-Asn-Tyr-Lys-Lys-Pro-NH2 (Palmitoyl-KFNLPLGNYKKP-NH2; SMILES CCCCCCCCCCCCCCCC(=O)N[C@@H](CCCCN)C(=O)N[C@@H](Cc1ccccc1)C(=O)N[C@@H](CC(N)=O)C(=O)N[C@@H](CC(C)C)C(=O)N1CCC[C@H]1C(=O)N[C@@H](CC(C)C)C(=O)NCC(=O)N[C@@H](CC(N)=O)C(=O)N[C@@H](Cc1ccc(O)cc1)C(=O)N[C@@H](CCCCN)C(=O)N[C@@H](CCCCN)C(=O)N1CCC[C@H]1C(N)=O) [Peptide 1] | 95.4

Test system: Human dermal fibroblasts
Assay: Cytotoxicity assay (MTT) in fibroblasts
Type: cell-based
Conditions: positive control 0.1% SDS, 48h incubation
Method: as §1

Row | Compound | Fibroblasts % cell viability [%]
12 | CCCCCCCCCCCCOS(=O)(=O)[O-].[Na+] [SDS, Sodium dodecyl sulfate] | 25.0
